Paper PMC10905646 (Molecular psychiatry, 2023)

Target: T1, 6×His-tagged Kv3.1 T1 domain (His-31T1) (UniProt P25122 1-190)
T1 sequence (looked up): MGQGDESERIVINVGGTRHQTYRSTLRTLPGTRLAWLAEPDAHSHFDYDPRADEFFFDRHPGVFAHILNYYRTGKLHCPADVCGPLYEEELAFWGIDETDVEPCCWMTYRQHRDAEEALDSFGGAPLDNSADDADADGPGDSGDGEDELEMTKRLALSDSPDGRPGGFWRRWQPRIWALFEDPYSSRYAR
Test: SPR

B1: GST-fused MAP6 Mn modules (GST-M115–221; aa 115–221 from MAP6N) (domain or fragment, UniProt Q63560 115-221, looked up)
chain: ADSVMRQDYRAWKVQRPEPSCRPRSEYQPSDAPFERETQYQKDFRAWPLPRRGDHPWIPKPVQIPATSQPSPPVLGMPKRRPQSQERGPIQLSADARDPEGAGGAGV
In the case of B1, the Kd is reported as 62.5 ± 18.4 nM.
